This note sets out measurements from patent US20240002500A1 (GUANGDONG FAPON BIOPHARMA, published 2024).

As usually defined, the EC50 is the concentration that produces a half-maximal response. Read a low EC50 as greater potency. One may read the Kd as a measure of binding affinity in units of concentration. A word on the IC50: it is the concentration that gives 50% inhibition.

Changes are numbered by the printed parent chain.

T1: hTIGIT-hFc (human, UniProt Q495A1 22-141)
T1 construct: also called antigen protein hTIGIT-hFc; human TIGIT recombinant protein carrying a human Fc tag; not shown: human Fc tag
T1 sequence (looked up): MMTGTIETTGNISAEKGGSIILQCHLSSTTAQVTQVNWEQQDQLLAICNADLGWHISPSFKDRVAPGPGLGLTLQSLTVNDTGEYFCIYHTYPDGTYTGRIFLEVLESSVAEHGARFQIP

T2: full-length human TIGIT on cells (human, UniProt Q495A1 22-244)
T2 construct: whole, on cells; The same protein is used for CHO-hTIGIT, PBMC and NK92-hTIGIT; the cells are named under assay; also called CHO-hTIGIT; hTIGIT
T2 sequence (looked up): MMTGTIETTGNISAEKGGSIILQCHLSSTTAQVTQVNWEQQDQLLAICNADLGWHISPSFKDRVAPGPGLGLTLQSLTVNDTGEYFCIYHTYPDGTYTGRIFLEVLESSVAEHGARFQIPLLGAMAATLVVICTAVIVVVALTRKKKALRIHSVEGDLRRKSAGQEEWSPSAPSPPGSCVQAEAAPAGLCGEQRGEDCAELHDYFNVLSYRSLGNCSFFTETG

T3: human Tigit extracellular domain recombinant protein hTigit-his (self-produced) (human, UniProt Q495A1 22-141)
T3 construct: extracellular domain; Self-produced; used in the KD analysis of Embodiment 4; also called human Tigit recombinant protein; not shown: his tag
T3 sequence (looked up): T1 sequence (looked up)

B1: 3Tigit-16 mouse monoclonal antibody (antibody, V domains shown)
VH: EVQLQQSGPELVKPGASVKMSCKASGFTFTDYFMDWVKQSRGASFEWIGRLNPNNGRTSYNQKFKGKATLTVDKSSSTAYMELNSLTSEDSAVYYCARGDLGRWYFDVWGAGTTVTVSS
VL: QIVLTQSPAIMSASPGEKVTMTCSASSSVSYMHWYQQKSGTSPKRWIYDTSKLASGVPTRFSGSGSGTSYSLTISSMEAEDAASYFCQQWSSNSLTFGAGTKLELKR
notes: Mouse monoclonal antibody from hybridoma
B2: 3Tigit-29 mouse monoclonal antibody (antibody, V domains shown)
VH: EVQLQQSGPELVKPGASVKISCKASGYTFTDYNMHWVKQSLGKSLEWIGYVNSFNGNTGYSQKFKSKVTLTVDRSSRTAYMDLRSLTSEDSAVFYCARSSRGGFAYWGQGTLVTVSA
VL: B1 VL with T59A, G65V, S84T, F86Y
notes: as for B1
B3: Tigit-5 mouse monoclonal antibody (antibody, V domains shown)
VH: QVQLQQPGAELVRPGASVKLSCKASGYSFTSYWMNWVKQRPGQGLEWIGMIRPSDSETRLNQMFKDKATLTVDKSSSTAYMQLSSPTSDDSAVYYCAGIHDYGHGAYWGQGTLVTVSA
VL: DIQMIQSPASLSVSVGETVTITCRASENIYSNLAWYQQKQGKSPQLLVYAASHLPDGVPSRFSGSGSGTQYSLKINSLQSEDFGSYYCQHFWGTPRTFGGGTKLEIKR
notes: as for B1
B4: 3Tigit-12 mouse monoclonal antibody (antibody, V domains shown)
VH: QVQLQQSGAELVRPGTSVKMSCKAAGYTFTNYWIGWVKQRPGHGLEWIGDIYPGGGYTNYDEKFKGKATLTADTSSRTAYMQLSSLTSEDSAIYHCVNGGYGSTYGYFDVWGAGTTVTVSS
VL: DIVMSQSPSSLPVSVGEKVTMSCKSSQSLLFSSDQKNYLAWYQQKPGQSPKLLIYWASTRESGVPDRLTGSGSGTDFTLTISSVKAEDLAVYYCQQYHKYPFTFGGGTKLEIKR
notes: as for B1
B5: 14Tigit-1-1 mouse monoclonal antibody (antibody, V domains shown)
VH: DVQLQESGPGLVKPSQSLSLTCTVTGYSITSDYAWNWIRQFPGNKLEWMGYISYSGSTRSNPSLKSRISITRDTSKNQFFLQLNSMTAEDTATYYCGGWEVRNYYAMDYWGQGTSVTVSS
VL: DIVMTQSHKFMSTSVGDRVSITCKASQHVSTAVAWYQQKPGQSPKLLIYSASYRYTGVPDRFTGSGSGTDFTFTISSVQAEDLAVYYCQQHYNTPWTFGGGTKLEIKR
notes: as for B1

The first assay addresses T1, hTIGIT-hFc. In words: FACS blocking: antibody preincubated with hTIGIT-hFc, then CHO-hPVR cells, PE anti-human IgG Fc; blocked partner PVR on cells. As to the method: The CHO-engineered cells CHO-hPVR cells recombinantly expressing full-length human PVR were counted centrifugated at 300 g for 5 min, resuspended with an FCM buffer, the cells were added to the 96-well V-shaped plate; the volume of each cell added into a 96-well V-shaped plate was 2E+05 cell/well (being added in 50 μL/well); and incubation was performed in dark on ice for 30 min. Centrifugation (300 g/5 min) was performed; supernatant was discarded; 200 μL of the FCM buffer was added for washing once; centrifugation (300 g/5 min) was performed; and the supernatant was discarded. Secondary antibodies (PE anti-human IgG Fc, 1:500 dilution) were added to the 96-well V-shaped plate (in 100 μL/well); and incubation was performed in dark on ice for 30 min. Centrifugation (300 g/5 min) was performed; supernatant was discarded; 200 μL of the FCM buffer was added for washing once; centrifugation (300 g/5 min) was performed; and the supernatant was discarded. 100 μL of the 1×PBS was added for resuspending, and on-machine detection was performed.
As for B1, the “IC50 (read off the curve)” value is about 1 nM.

Consider B2, for which the “IC50 (read off the curve)” value is about 1 nM.

In the case of B3, the “IC50 (read off the curve)” value is about 1 nM.

A further assay concerns the target T2, full-length human TIGIT on cells. In words: FACS titration on CHO-hTIGIT cells, PE goat anti-mouse IgG. As to the method:
The CHO-engineered cells CHO-hTIGIT cells recombinantly expressing full-length human TIGIT to be detected were counted, centrifuged at 300 g for 5 min, resuspended in an FCM buffer and cell density was adjusted to 4E+06 cell/mL for later use. A sample to be detected (including a positive control antibody and a mouse monoclonal antibody) was diluted with the FCM buffer to 20 μg/mL, and then the FCM buffer was used to perform 3× serial dilutions of 12 concentration points; and the isotype control antibody was diluted with the FCM buffer to 20 μg/mL. According to an experimental design, in each well, 50 μL of the antibody and 50 μL of the cell (the amount of each cell added into a 96-well V-shaped plate being 2E+05 cells/well) were respectively added in the 96-well V-shaped plate; and incubation in dark was performed on ice for 30 min. Centrifugation (300 g/5 min) was performed; supernatant was discarded; 200 μL of the FCM buffer was added for washing once; centrifugation (300 g/5 min) was performed; and the supernatant was discarded. […] Centrifugation (300 g/5 min) was performed; supernatant was discarded; 200 μL of the FCM buffer was added once for washing once; centrifugation (300 g/5 min) was performed; and the supernatant was discarded. 100 μL of the 1×PBS was added for resuspending, and on-machine detection was performed.
The molecule B4 displayed an EC50 of 0.473 nM.

B5: the EC50 was 0.452 nM.

In turn, B1 returned an EC50 of 0.383 nM.

The molecule B2 registered an EC50 of 0.388 nM.

Take B3: the EC50 was determined as 0.197 nM.

In the next assay the target is T3, human Tigit extracellular domain …. Briefly: BLI (ForteBIO QKe), hTigit-his on anti-Penta-HIS sensor, antibody in solution. As to the method: Binding kinetic constant analysis was performed on an anti-hTigit antibody and hTigit with an MD ForteBIO QKe platform.
A general note: Biolayer interferometry detects binding as a change in optical thickness at a sensor tip.
Regarding B4, the dissociation constant Kd is 0.119 nM.

On to B5, for which the dissociation constant (Kd) worked out at 0.172 nM.

In the case of B1, the equilibrium dissociation constant (Kd) was 0.202 nM.

For B2, the Kd was 0.155 nM.

B3: the equilibrium dissociation constant (Kd) was determined as 0.0605 nM.

For a further assay, the target named is T1, hTIGIT-hFc. Briefly: FACS blocking on CHO-hCD112 cells; span of the fitted curve, unit from the y axis. As to the method:
(§1) The CHO-engineered cell CHO-hCD112 cells recombinantly expressing full-length human CD112 were counted; centrifugated at 300 g for 5 min; resuspended with an FCM buffer; and cell density was adjusted to 4E+06 cell/mL for later use. […] According to an experimental design, in each well, 50 μL of the antigen protein and 50 μL of the cell (the volume of each cell added into a 96-well V-shaped plate being 2E+05 cell/well) were respectively added in the 96-well V-shaped plate; and incubation was performed in dark on ice for 30 min. Centrifugation (300 g/5 min) was performed; supernatant was discarded; 200 μL of the FCM buffer was added for washing once; centrifugation (300 g/5 min) was performed; and the supernatant was discarded. The antibody was added to the 96-well V-shaped plate (in 100 μL/well); and incubation was performed in dark on ice for 30 min. Centrifugation (300 g/5 min) was performed; supernatant was discarded; 200 μL of the FCM buffer was added for washing once; centrifugation (300 g/5 min) was performed; and the supernatant was discarded. Secondary antibodies (APC anti-human IgG Fc, 1:500 dilution) were added to the 96-well V-shaped plate (in 100 μL/well); and incubation was performed in dark on ice for 30 min. Centrifugation (300 g/5 min) was performed; supernatant was discarded; 200 μL of the FCM buffer was added for washing once; centrifugation (300 g/5 min) was performed; and the supernatant was discarded. 100 μL of the 1×PBS was added for resuspending, and on-machine detection was performed.
Consider B4, for which the Span amounted to 278 MFI-APC.

Consider B1, for which the Span was found to be 215 MFI-APC.

As to B2, the Span was 327 MFI-APC.

Turning to B3, the Span worked out at 212 MFI-APC.

The next assay concerns the target T1, hTIGIT-hFc. Briefly: FACS blocking: hTIGIT-hFc bound on CHO-hCD112 cells, then antibody, APC anti-human IgG Fc; blocked partner CD112; unit from the x axis Log[µg/mL]. As to the method: as §1
B4 displayed an IC50 of 0.191 µg/mL.

In turn, B1 had an IC50 of 0.265 µg/mL.

For B2, half-maximal inhibition (IC50) required 0.196 µg/mL.

B3 showed an IC50 of 0.143 µg/mL.
